Experiment [1] concerns the target T1, LPAR1 (Homo sapiens, UniProt Q92633). Kind of experiment: Function of humanised and affinity matured variants, method not stated. Further details: expressed in transfected cells. The note with it: stated in words.
Experiment [2] has as its system renal fibrosis after UUO surgery. Briefly: Unilateral ureteral obstruction (UUO) efficacy model of renal fibrosis. The experiment is classed as in vivo, Hartley guinea pigs. The note with it: Study 1; BMS-986020 30 mg/kg oral twice daily; antibody 20 mg/kg i.p.; Day 10. As for the experimental part: Unilateral ureteral obstruction (UUO) is a well-characterized disease model for renal fibrosis. The UUO model encompasses key pathophysiological features of chronic kidney disease; tubular necrosis and inflammatory cell infiltration within a relatively short period.
Two unilateral ureteral obstruction (UUO) model efficacy studies were carried out in six-week old female Hartley guinea pigs. On Day 0, UUO surgery was performed. BMS-986020 was administered orally at a dose level of 30 mg/kg in a volume of 5 mL/kg twice daily at from Day −1 to 9. Isotype control and anti-LPAR1 antibody was intraperitoneally administered at a dose level of 6 mg/kg (low) or 20 mg/kg (high) in a volume of 10 mL/kg at Day −1, Day 0, Day 3 and Day 6. The viability, clinical signs, behaviour and individual body weight was monitored daily.
The animals were sacrificed at Day 10. The ligated left kidney and right kidney weight were measured at sacrifice.
Hydroxyproline is an amino acid, making up around 14% of collagen and acts as an important indicator of the severity of fibrosis. To quantify kidney hydroxyproline content, frozen posterior right section of left kidney samples were processed by an alkaline-acid hydrolysis method. AC buffer (2.2M acetic acid/0.48M citric acid) was added to the samples, followed by centrifugation to collect the supernatant. A standard curve of hydroxyproline was constructed with serial dilutions of trans-4-hydroxy-L-proline (Sigma-Aldrich, USA) starting at 16 μg/mL. The prepared samples and standards were mixed with chloramine T solution (Nacalai Tesque Inc., Japan) and incubated for 25 minutes at room temperature. The samples were then mixed with Ehrlich's solution and heated at 65° C. for 20 minutes to develop the colour. After samples were cooled on ice and centrifuged to remove precipitates, the optical density of each supernatant was measured at 560 nm. The concentrations of hydroxyproline were calculated from the hydroxyproline standard curve. Protein concentrations of kidney samples were determined using a BCA protein assay kit (Thermo Fisher Scientific, USA) and used to normalize the calculated hydroxyproline values. Kidney hydroxyproline contents were expressed as μg per mg protein.
The left kidney was fixed in Bouin's solution and embedded in paraffin. For PAS staining, sections were cut from paraffin blocks and stained with Schiff's reagent (FUJIFILM Wako pure chemical corporation, Japan) according to the manufacturer's instructions. To visualize collagen deposition, kidney sections were stained using picro-Sirius red solution (FUJIFILM Wako pure chemical corporation). For quantification of interstitial and medulla fibrosis area, bright field images in the corticomedullary region were captured using a digital camera (DFC295) at 200-fold magnification, and the positive areas in 5 fields/section were measured using ImageJ software (National Institute of Health, USA).

Experiment [3] concerns the target T1, LPAR1. Briefly: Transient-transfection CIFAT, fixed/permeabilised cells. The experiment is classed as binding. The arrangement: HA; expressed in transfected cells; host or cells: CHO-K1 (transient, PEI). The note with it: 5 μg/mL.
Experiment [4] addresses T1, LPAR1. Briefly: LPAR1 binding affinity during discovery and affinity maturation, method not stated. Further details: expressed in transfected cells. The note with it: stated in words.
A further experiment deals with Irrelevant GPCR. Briefly: Transient-transfection CIFAT, irrelevant GPCR control (fixed and live cells). The experiment is classed as binding. The note with it: cells expressing irrelevant GPCR. The procedure: (§1) Anti-LPAR1 antibodies of the invention were tested alongside commercially available anti-LPAR1 antibodies in the transient-transfection CIFAT assay for live cells (method 1.11) and in the transient-transfection CIFAT assay for fixed cells (method 1.11).
The results are shown in FIGS. 11 and 12, wherein the scale bar represents 100 μm.

Experiment [5] addresses T1, LPAR1. Kind of experiment: Transient-transfection CIFAT, live cells. Type of experiment: binding. The arrangement: HA; expressed in transfected cells; host or cells: CHO-K1 (transient, PEI). The note with it: 5 μg/mL or 20 μg/mL. As for the experimental part: CHO-K1 cells are seeded in multi well plates at 20,000 cells per 200 μL full growth medium and incubated for 24 hours at 37° C. In a sterile tube, 0.0309 uL/well PEI is diluted into 10 uL/well transfection medium (DMEM supplemented with 2 mM L-glutamine and Penicillin-Streptomycin). The diluted PEI is added to 100 ng/well DNA, before mixing immediately and incubating the mixture for 10 minutes at room temperature. 200 μL/well full growth medium is added to the PEI-DNA mixture, then medium in wells is taken off and 200 ul full growth medium/PEI/DNA mixture is added in the wells of the adherent cell plate. The plate is incubated for 24 hours at 37° C. The medium is discarded and replaced with 200 μL full growth medium. The plate is incubated for 24 hours at 37° C. Medium is removed from the wells and the cells incubated with primary antibody at varying concentrations for 75 minutes at 37° C. After washing and cell fixation with 4% PFA, the binding of the antibodies is detected using a goat anti-human detection antibody, incubated for 1 hour at room temperature. Fluorescence at 488 nm is measured.
CHO-K1 cells were seeded in clear 96-well plates at 20,000 cells per 200 μL full growth medium and incubated for 24 hours at 37° C. The following day, in a sterile tube, 0.0309 uL/well PEI (Generon, MW 160,000) was diluted into 10 uL/well transfection medium (DMEM supplemented with 2 mM L-glutamine and Penicillin-Streptomycin). The diluted PEI was added to 100 ng/well DNA encoding the target protein (human LPAR1 (SEQ ID NO: 62) unless otherwise stated), before vortexing immediately and incubating the mixture for 10 minutes at room temperature. 200 μL/well full growth medium was added to the PEI-DNA mixture, then medium in wells was taken off and 200 ul full growth medium/PEI/DNA mixture was added in the wells of the adherent cell plate. The plate was incubated for 24 hours at 37° C. The next day, the medium was discarded and replaced with 200 μL full growth medium. The plate was incubated for 24 hours at 37° C. The following day, medium was removed from the wells and the cells incubated with primary antibody at varying concentrations for 75 minutes at 37° C. After washing and cell fixation with 4% PFA, the binding of the antibodies was detected using a goat anti-human Alexa Fluor 488 detection antibody (Invitrogen), incubated for 1 hour at room temperature. Fluorescence at 488 nm was measured using a BMG LABTECH ClarioStar plate reader and microscopy images were taken at 10× magnification.
as §1

In another experiment the target is T2, CHO-LPAR1 cells (Homo sapiens, UniProt Q92633).
T2 construct: expressed in transfected cells
T2 sequence (Q92633 whole entry): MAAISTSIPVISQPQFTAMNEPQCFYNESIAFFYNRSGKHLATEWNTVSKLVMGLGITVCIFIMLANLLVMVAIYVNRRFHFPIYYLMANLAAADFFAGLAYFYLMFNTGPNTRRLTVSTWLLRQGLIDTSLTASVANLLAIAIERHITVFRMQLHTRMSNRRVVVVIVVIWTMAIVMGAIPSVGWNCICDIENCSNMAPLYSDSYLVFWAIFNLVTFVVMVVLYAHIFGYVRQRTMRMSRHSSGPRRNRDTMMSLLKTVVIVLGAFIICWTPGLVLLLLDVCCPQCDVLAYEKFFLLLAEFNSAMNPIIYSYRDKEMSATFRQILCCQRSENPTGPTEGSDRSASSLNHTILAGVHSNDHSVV
Kind of experiment: Competition CIFAT. The experiment is classed as binding. The settings on record: data not shown. As for the experimental part:
CHO-LPAR1 (GenScript) cells were seeded in black 96-well plates at 50,000 cells/200 μL full growth medium at and incubated for 24 hours at 37° C. The following day, the medium was removed from the wells and the cells incubated with 100 μg/mL primary antibody for 20 minutes at 37° C. After pre-incubation with the antibody, 10 μg/mL biotinylated competing antibody was added before incubation for 20 minutes at 37° C. After washing and cell fixation with 4% PFA, the binding of the antibodies was detected using an Alexa Fluor 488 streptavidin detection antibody (Molecular Probes), incubated for 45 minutes at 4° C. Fluorescence at 488 nm was measured using a BMG LABTECH ClarioStar plate reader and microscopy images were taken at 10× magnification.

T1 sequence (Q92633 whole entry): as above

B1: Antibody 7: Humanised variant of Antibody 1; VH SEQ ID NO: 33, VL SEQ ID NO: 34 (antibody, V domains shown)
VH: QVQLVQSGSELKKPGASVKVSCKASGYTFTSSGISWVRQAPGQGLEWMGEILPRSGYTNYNEGFTGRFVFSADKSVSTAYLQISSLKAEDTAVYYCARDFGSSRYAMDYWGQGTTVTVSS
VL: SIQMTQSPSSLSASVGDRVTITCQASQSVRYNVAWYQQKPGKAPKLLIYYASNRYTGVPSRFSGSGSGTDFTFTISSLQPEDIATYFCQQHYNSPLTFGGGTKLEIK
Take B1: the function result with LPAR1 [1] was “best in terms of expression, stability and function”.

B2: Antibody 13: LCDR2 mutation T56D; VH SEQ ID NO: 37, VL SEQ ID NO: 38 (antibody, V domains shown)
VH: QVQLVQSGSELKKPGASVKVSCKASGYTFTSSGISWVRQAPGQGLEWMGEILPRSGYTNYNQGFTGRFVFSADKSVSTAYLQISSLKAEDTAVYYCARDKGPSRYTMDYWGQGTTVTVSS
VL: SIQMTQSPSSLSASVGDRVTITCQASQSVRYNVAWYQQKPGKAPKLLIYYASNRYDGVPSRFSGSGSGTDFTFTISSLQPEDIATYFCQHHYSSPLTFGGGTKLEIK
For B2, the kidney hydroxyproline result in experiment [2] was “No observable difference”. For the same molecule, the “LPAR1 fixed cell staining” value with LPAR1 [3] is “LPAR1-Significant fixed and live cell staining”. Besides, the “binding affinity for LPAR1” value with LPAR1 [4] is reported as “minimal effect on affinity”. Further, the “Irrelevant GPCR cell staining” value with Irrelevant GPCR was “Irrelevant GPCR-No significant cell staining”. Further, the “LPAR1 live cell staining” value with LPAR1 [5] was “LPAR1-Significant fixed and live cell staining”.

B3: Antibody 9: Antibody 8 with HCDR2 mutation E61Q; VH SEQ ID NO: 35, VL SEQ ID NO: 39 (antibody, V domains shown)
VH: QVQLVQSGSELKKPGASVKVSCKASGYTFTSSGISWVRQAPGQGLEWMGEILPRSGYTNYNQGFTGRFVFSADKSVSTAYLQISSLKAEDTAVYYCARDFGSSRYAMDYWGQGTTVTVSS
VL: SIQMTQSPSSLSASVGDRVTITCQASQSVRYNVAWYQQKPGKAPKLLIYYASNRYTGVPSRFSGSGSGTDFTFTISSLQPEDIATYFCQHHYSSPLTFGGGTKLEIK
With B3, the function result with LPAR1 [1] is given as “significantly enhanced the function”.

B4: Antibody 1: Hybridoma-derived antibody against LPAR1; VH SEQ ID NO: 23, VL SEQ ID NO: 24 (antibody, V domains shown)
VH: QVQLQQSGAELARPGASVKLSCKASGYTFTSSGISWVKQRTGQGLEWIGEILPRSGYTNYNEKFKGKASLTADKSSSTAYMELRSLTSEDSAVYFCARDFGSSRYAMDYWSQGTSVTVSS
VL: SIVMTQTPKLLPVSAGDRVTMTCKASQSVRYNVAWYQQKPGQSPKLLIYYASNRYTGVPDRFTGSGSGTDFTFTVRSVQVEDLAVYFCQQHYNSPLTFGSGTKLELR
Take B4: the “competition for the same epitope” value with CHO-LPAR1 cells is “compete for the same epitope”.

B5: Antibody 4: Hybridoma related to Antibody 1 with LCDR3 mutation Q90H; VH SEQ ID NO: 29, VL SEQ ID NO: 30 (antibody, V domains shown)
VH: QVQLQQSGAELARPGASVKLSCKASGYTFTSSGISWVKQRTGQGLEWIGEIYPRSGYTNYNEKFKGKASLTADKSSRTAYMELRSLTSEDSAVYFCARDYDNSRYALDYWGQGTSVTVSS
VL: SIVMTQTPKFLPVSAGDRVTMTCKASQSVGYNVAWYQQKTGQSPKLLIYYASNRYTGVPDRFTGSGSGTDFTFTISSVQVEDLAVYFCQHHYSSPLTFGAGTKLELK
Regarding B5, in the experiment with LPAR1 [3], the “LPAR1 fixed cell staining” value was “LPAR1-Significant fixed and live cell staining”. Further, in the experiment with Irrelevant GPCR, the “Irrelevant GPCR cell staining” value was “Irrelevant GPCR-No significant cell staining”. In addition, the “LPAR1 live cell staining” value with LPAR1 [5] is “LPAR1-Significant fixed and live cell staining”.

B6: 63D8: Further hybridoma antibody specific to LPAR1; VH SEQ ID NO: 113, VL SEQ ID NO: 114 (antibody, V domains shown)
VH: EVKLLESGGGLVQPGGSLKLSCTASGFDFSRYWMSWVRQAPGKGLEWIGEINPSRSAINYSPSLKDKFIISRDNAKNTLYLQMSKVRSEDTALYYCARQGQRLRYGMDYWGQGTSVTVSS
VL: DIVMTQSPNFMSTSVGDRVSVTCRASQDVRTAVAWYQQKPGRSPKLLIYWTSTRHTGVPDRFTGSGSGTDYTLTISSVQAADLALYYCQQHYGTPLTFGAGTNLELK
As to B6, the “LPAR1 fixed cell staining” value in the experiment with LPAR1 [3] was “LPAR1-Significant fixed and live cell staining”. In addition, the “competition for the same epitope” value with CHO-LPAR1 cells is on record as “compete for the same epitope”. Moreover, the “Irrelevant GPCR cell staining” value with Irrelevant GPCR was “Irrelevant GPCR-No significant cell staining”. The “LPAR1 live cell staining” value with LPAR1 [5] was “LPAR1-Significant fixed and live cell staining”.
